Measurements as given in patent US20260265360A1 (NEURACLE SCIENCE, published 2026).
Numbering of substitutions follows the chain as printed. One block for each binder: values may come before it. Ends that are not written are not given here.

How the values were obtained:
FAM19A5 mutant M2 = target: T1, FAM19A5 mutant M2 (human); assay: ELISA on phage-expressed FAM19A5 mutants M1-M8
T1 chain: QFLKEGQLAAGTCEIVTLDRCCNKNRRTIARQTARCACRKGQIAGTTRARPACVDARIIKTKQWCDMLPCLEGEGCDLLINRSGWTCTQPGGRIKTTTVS

F2-01-BSA (#1) = target: T2, F2-01-BSA (#1) (human, conjugated to BSA); assay: ELISA, plate-coated F2 mutant peptides (BSA-conjugated)
T2 construct: already contained in the entry; also called mutant F2 peptide fragment #1
T2 peptide: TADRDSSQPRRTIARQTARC

F2-02-BSA (#2) = target: T3, F2-02-BSA (#2) (human, conjugated to BSA); assay: as above
T3 construct: already contained in the entry; also called mutant F2 peptide fragment #2
T3 peptide: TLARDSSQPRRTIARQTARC

F2-04-BSA (#4) = target: T4, F2-04-BSA (#4) (human, conjugated to BSA); assay: as above
T4 construct: already contained in the entry; also called mutant F2 peptide fragment #4
T4 peptide: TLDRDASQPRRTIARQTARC

F2-05-BSA (#5) = target: T5, F2-05-BSA (#5) (human, conjugated to BSA); assay: as above
T5 construct: already contained in the entry; also called mutant F2 peptide fragment #5
T5 peptide: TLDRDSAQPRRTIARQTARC

F2-06-BSA (#6) = target: T6, F2-06-BSA (#6) (human, conjugated to BSA); assay: as above
T6 construct: already contained in the entry; also called mutant F2 peptide fragment #6
T6 peptide: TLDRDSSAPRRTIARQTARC

F2-07-BSA (#7) = target: T7, F2-07-BSA (#7) (human, conjugated to BSA); assay: as above
T7 construct: already contained in the entry; also called mutant F2 peptide fragment #7
T7 peptide: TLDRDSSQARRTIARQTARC

F2-08-BSA (#8) = target: T8, F2-08-BSA (#8) (human, conjugated to BSA); assay: as above
T8 construct: already contained in the entry; also called mutant F2 peptide fragment #8
T8 peptide: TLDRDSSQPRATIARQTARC

F2-09-BSA (#9) = target: T9, F2-09-BSA (#9) (human, conjugated to BSA); assay: as above
T9 construct: already contained in the entry; also called mutant F2 peptide fragment #9
T9 peptide: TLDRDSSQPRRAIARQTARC

F2-10-BSA (#10) = target: T10, F2-10-BSA (#10) (human, conjugated to BSA); assay: as above
T10 construct: already contained in the entry; also called mutant F2 peptide fragment #10
T10 peptide: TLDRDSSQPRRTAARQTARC

F2-12-BSA (#12) = target: T11, F2-12-BSA (#12) (human, conjugated to BSA); assay: as above
T11 construct: already contained in the entry; also called mutant F2 peptide fragment #12
T11 peptide: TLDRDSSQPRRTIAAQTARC

F2-13-BSA (#13) = target: T12, F2-13-BSA (#13) (human, conjugated to BSA); assay: as above
T12 construct: already contained in the entry; also called mutant F2 peptide fragment #13
T12 peptide: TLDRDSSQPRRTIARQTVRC

[1] = target: T13, FAM19A5 epitope fragment F2, BSA-conjugated (human, conjugated to BSA); assay: ELISA, plate-coated BSA-conjugated FAM19A5 fragments F1-F6 (data not shown)
T13 peptide: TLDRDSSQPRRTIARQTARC
Procedure: Binding of the different anti-FAM19A5 antibodies to the BSA-conjugated peptide fragments F1-F6 was determined by Western blot analysis or ELISA assay. For the Western blot analysis, BSA-conjugated FAM19A5 fragments F1-F6 were separated by SDS polyacrylamide gel electrophoresis and transferred to a nitrocellulose membrane by the standard procedure. The membrane was incubated with the anti-FAM19A5 antibody (e.g., 1-65, […], 1-65-scFv-rabbit Fc-SSS), and the antigen-antibody complexes were detected with the appropriate secondary antibody conjugated with horse-radish peroxidase (anti-rabbit IgG (Fc specific)-HRP, 1:4000 dilution). For the ELISA assay, the following protocol was used. FAM19A5 fragment F1-F6 (diluted to 1 μg/mL in 50 mM carbonate buffer (Biosesang) or to 20 μg/mL for high concentration analysis) were used to coat the wells of 96-well immuno plates (Thermo Scientific) (100 μL/well) overnight at 4° C. and then subsequently washed twice in 1×PBS. The plates were then blocked with the blocking buffer (100 μL/well) for 1 hour at room temperature. […] The absorption value of each of the wells was detected at 492 nm using a 96-well microplate reader (Molecular Device).
(§1) As shown in FIGS. 19 and 20A, the anti-FAM19A5 antibody 1-65 bound strongly to fragment F5 as measured by both Western Blot and ELISA assay, respectively.

FAM19A5 mutant M1 = target: T14, FAM19A5 mutant M1 (human); assay: ELISA on phage-expressed FAM19A5 mutants M1-M8
T14 chain: T1 chain with I15V, V16I, T17A, L18A, D19H, C21D, C22S, N23S, K24Q, N25P

FAM19A5 mutant M3 = target: T15, FAM19A5 mutant M3 (human); assay: ELISA on phage-expressed FAM19A5 mutants M1-M8
T15 chain: T1 chain with C21D, C22S, N23S, K24Q, N25P, R27I, T28E, I29E, A30R, R31S

FAM19A5 mutant M4 = target: T16, FAM19A5 mutant M4 (human); assay: ELISA on phage-expressed FAM19A5 mutants M1-M8
T16 chain: T1 chain with C21D, C22S, N23S, K24Q, N25P, A34V, R35K, A37S, R39F, K40P

FAM19A5 mutant M6 = target: T17, FAM19A5 mutant M6 (human); assay: ELISA on phage-expressed FAM19A5 mutants M1-M8
T17 chain: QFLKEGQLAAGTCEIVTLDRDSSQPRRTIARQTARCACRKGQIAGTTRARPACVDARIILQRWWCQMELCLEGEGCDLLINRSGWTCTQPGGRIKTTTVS

FAM19A5 mutant M7 = target: T18, FAM19A5 mutant M7 (human); assay: ELISA on phage-expressed FAM19A5 mutants M1-M8
T18 chain: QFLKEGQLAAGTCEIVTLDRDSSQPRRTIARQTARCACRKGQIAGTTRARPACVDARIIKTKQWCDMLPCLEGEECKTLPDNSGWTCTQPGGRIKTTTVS

FAM19A5 mutant M8 = target: T19, FAM19A5 mutant M8 (human); assay: ELISA on phage-expressed FAM19A5 mutants M1-M8
T19 chain: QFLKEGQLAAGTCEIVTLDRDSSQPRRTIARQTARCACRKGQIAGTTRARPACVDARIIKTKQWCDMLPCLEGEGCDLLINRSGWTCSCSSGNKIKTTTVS

[2] = target: T20, FAM19A5 epitope fragment F1, BSA-conjugated (human, also: conjugated to BSA); assay: ELISA, plate-coated BSA-conjugated FAM19A5 fragments F1-F6
T20 construct: which number belongs to which fragment is not spelled out
T20 peptide: QLAAGTCEIVTLDR
Procedure: (§2) Binding of the different anti-FAM19A5 antibodies to the BSA-conjugated peptide fragments F1-F6 was determined by Western blot analysis or ELISA assay. For the Western blot analysis, BSA-conjugated FAM19A5 fragments F1-F6 were separated by SDS polyacrylamide gel electrophoresis and transferred to a nitrocellulose membrane by the standard procedure. The membrane was incubated with the anti-FAM19A5 antibody (e.g., 1-65, […], 1-65-scFv-rabbit Fc-SSS), and the antigen-antibody complexes were detected with the appropriate secondary antibody conjugated with horse-radish peroxidase (anti-rabbit IgG (Fc specific)-HRP, 1:4000 dilution). For the ELISA assay, the following protocol was used. FAM19A5 fragment F1-F6 (diluted to 1 μg/mL in 50 mM carbonate buffer (Biosesang) or to 20 μg/mL for high concentration analysis) were used to coat the wells of 96-well immuno plates (Thermo Scientific) (100 μL/well) overnight at 4° C. and then subsequently washed twice in 1×PBS. The plates were then blocked with the blocking buffer (100 μL/well) for 1 hour at room temperature. During the 1-hour incubation, the relavant anti-FAM19A5 antibodies were diluted to 1 μg/mL (or 20 μg/mL for high concentration analysis) in the diluent buffer. Once the plates were washed (2× using 1×PBS), the diluted anti-FAM19A5 antibodies were added to the appropriate wells, and the plates were incubated at room temperature for 1 hour. The plates were subsequently washed for a total of five times using the washing buffer. Next, the ODP substrate (prepared by dissolving one ODP tablet (O-phenylenediamine Dihydrochloride, Thermo) into 9 mL of sterilized deionized water and 1 mL of 10× stable Peroxide Stable buffer (Theromo)) was added to each of the wells, and the color change reaction was allowed to occur for 10 minutes. This reaction was stopped by adding 100 μL of 2N H2SO4 (Daejung) to the wells. The absorption value of each of the wells was detected at 492 nm using a 96-well microplate reader (Molecular Device).
as §1

[3] = target: T13, FAM19A5 epitope fragment F2, …; assay: as above
Procedure: as §2, §1

[4] = target: T21, FAM19A5 epitope fragment F3, BSA-conjugated (human, conjugated to BSA); assay: as above
T21 peptide: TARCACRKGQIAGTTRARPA
Procedure: as §2, §1

[5] = target: T22, FAM19A5 epitope fragment F4, BSA-conjugated (human, conjugated to BSA); assay: as above
T22 peptide: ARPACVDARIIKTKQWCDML
Procedure: as §2, §1

[6] = target: T23, FAM19A5 epitope fragment F5, BSA-conjugated (human, conjugated to BSA); assay: as above
T23 peptide: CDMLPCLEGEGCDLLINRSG
Procedure: as §2, §1

[7] = target: T24, FAM19A5 epitope fragment F6, BSA-conjugated (human, conjugated to BSA); assay: as above
T24 peptide: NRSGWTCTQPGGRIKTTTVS
Procedure: as §2, §1

[8] = target: T25, Human FAM19A5 protein (Wild Type) (human, UniProt Q7Z5A7 44-132); assay: value given in the HDX-MS sample preparation; method of its determination not stated
T25 construct: also called FAM19A5 antigen; TAFA5

binding result (FAM19A5 mutant M2): no binding
binding result (F2-01-BSA (#1)): binds
binding result (F2-02-BSA (#2)): binds
binding result (F2-04-BSA (#4)): binds
binding result (F2-05-BSA (#5)): binds
binding result (F2-06-BSA (#6)): binds
binding result (F2-07-BSA (#7)): binds
binding result (F2-08-BSA (#8)): binds
binding result (F2-09-BSA (#9)): binds
binding result (F2-10-BSA (#10)): binds
binding result (F2-12-BSA (#12)): binds
binding result (F2-13-BSA (#13)): binds
binding result [1]: binds
B1: Anti-FAM19A5 antibody 1-28 (antibody, V domains shown)
VH: AVTLDESGGGLQTPGGALSLVCKASGFDFSDYGMGWVRQAPGKGLEWVAAIRSDGSNPSYGSAVKGRATISKDNGRSTVRLQLNNLRAEDTATYYCAKDGNGYCALDAYRSGGYSCGVYPGSIDAWGHGTEVIVSS
VL: ALTQPSSVSANLEGTVEITCSGSGYGYGWYQQKSPGSAPVTVIYQNDKRPSDIPSRFSGSKSGSTGTLTITGVQVEDEAVYYCGSEDSSTLAGIFGAGTTLTVL

binding result (FAM19A5 mutant M1): binds
binding result (FAM19A5 mutant M2): binds
binding result (FAM19A5 mutant M3): binds
binding result (FAM19A5 mutant M4): no binding
binding result (FAM19A5 mutant M6): binds
binding result (FAM19A5 mutant M7): binds
binding result (FAM19A5 mutant M8): no binding
binding result [2]: no binding
binding result [3]: no binding
binding result [4]: no binding
binding result [5]: no binding
binding result [6]: no binding
binding result [7]: no binding
Kd [8]: 1 nM
B2: Anti-FAM19A5 antibody 2-13 (antibody, V domains shown)
VH: AVTLDESGGGLQTPGGALSLVCKASGFTFSSHGMFWVRQTPGKGLEYVAEITNDGSGTNYGSAVKGRATISRDNGQSTVRLQLNNLRAEDTGTYFCARSTYECPGGFSCWGDTGQIDAWGHGTEVIVSS
VL: ALTQPSSVSANPGETVKITCSGGSYSYGWFQQKSPGSALVTVIYWDDERPSDIPSRFSGALSGSTNTLTITGVQADDEAVYFCGTEDISGTAGVFGAGTTLTVL
notes: also called clone 2-13
